Target: the molecule itself
Assay: high-speed atomic force microscopy

B1: Recombinant Human Neuronal Pentraxin 1 Protein (NP1) (natural protein, UniProt Q15818 23-432, looked up)
chain: QDFGPTRFICTSVPVDADMCAASVAAGGAEELRSSVLQLRETVLQQKETILSQKETIRELTAKLGRCESQSTLDPGAGEARAGGGRKQPGSGKNTMGDLSRTPAAETLSQLGQTLQSLKTRLENLEQYSRLNSSSQTNSLKDLLQSKIDELERQVLSRVNTLEEGKGGPRNDTEERVKIETALTSLHQRISELEKGQKDNRPGDKFQLTFPLRTNYMYAKVKKSLPEMYAFTVCMWLKSSATPGVGTPFSYAVPGQANELVLIEWGNNPMEILINDKVAKLPFVINDGKWHHICVTWTTRDGVWEAYQDGTQGGSGENLAPYHPIKPQGVLVLGQEQDTLGGGFDATQAFVGELAHFNIWDRKLTPGEVYNLATCSTKALSGNVIAWAESHIEIYGGATKWTFEACRQIN
  binding result: binds

— paper doi:10.1101/2023.12.19.572481 (bioRxiv, 2023)
